What was measured:
snai1_human SNAI1 [1] = biological target: snai1_human SNAI1 (UniProt O95863)
snai1_human SNAI1 [2] = biological target: snai1_human SNAI1 (UniProt O95863); remark: listed apart in the source

Sequence of snai1_human SNAI1 (O95863 whole entry): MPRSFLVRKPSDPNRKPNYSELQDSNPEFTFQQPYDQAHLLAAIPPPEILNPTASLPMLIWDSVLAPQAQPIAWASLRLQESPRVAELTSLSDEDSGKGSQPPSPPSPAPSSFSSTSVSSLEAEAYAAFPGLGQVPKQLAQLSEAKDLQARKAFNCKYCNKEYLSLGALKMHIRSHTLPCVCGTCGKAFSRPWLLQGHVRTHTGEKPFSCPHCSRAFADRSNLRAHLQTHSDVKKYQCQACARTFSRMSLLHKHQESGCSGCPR

Row | effect of a mutation on the interaction (snai1_human SNAI1 [1]) | effect of a mutation on the interaction (snai1_human SNAI1 [2]) | Substance
1 | disrupting interaction |  | Lysine-specific histone demethylase 1A (Homo sapiens) (from UniProt O60341) D375A
2 |  | disrupting interaction | Lysine-specific histone demethylase 1A (Homo sapiens) (from UniProt O60341) D553A
3 |  | disrupting interaction | Lysine-specific histone demethylase 1A (Homo sapiens) (from UniProt O60341) D555A
4 |  | disrupting interaction | Lysine-specific histone demethylase 1A (Homo sapiens) (from UniProt O60341) D556A
5 | disrupting interaction |  | Lysine-specific histone demethylase 1A (Homo sapiens) (from UniProt O60341) E379A

Reference: IntAct's records for PubMed 20389281
